Experimental data as given in the supplement of paper PMC9732359.
± gives the uncertainty stated by the source.

Test: protein stability index of a GFP-peptide fusion (yeast GPS) (PSI 1-4); higher = more stable; sorted into four equal gates, so the index is relative within each strain
Settings: pdr5∆
Outline: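 Sequencing reads from sorted gates were used to score each peptide. The library consisted of tiled 17-residue yeast protein peptides fused downstream of GFP on a Cherry-expressing plasmid, pooled and carried in yeast. Mid-log cultures in leucine-free medium were split into four equal gates by GFP/Cherry ratio, and each gate's plasmids were PCR-amplified and Illumina-sequenced. The protein stability index adds up, over all gates, the read frequency multiplied by the gate number.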

| Sequence | protein stability index |
| --- | --- |
| LFGSKPQGSTTNGGLFG [YGR119C/NUP57] | 3.47 ± 0.067 |
| LFKGTGFNSWEGLFWEK [PRP8] | 2.42 ± 0.13 |

Same assay, conditions: san1∆

| Sequence | protein stability index |
| --- | --- |
| KRSGHRTAPKSDNVYLK [RPL18A] | 2.69 ± 0.12 |
| KRYTSEGTRNRFSYSPP [YMR129W/POM152] | 2.92 ± 0.043 |
| KSAMDTFKSVSKYGMLL [POP3] | 2.7 ± 0.07 |
| KSDTVTSASQPFKFGKT [YOR098C/NUP1] | 1.62 ± 0.12 |
| KSFTNDKIPLNYAMTRN [SRB5] | 2.45 ± 0.06 |
| KSGIPEFTPADPNLSFE [SSN2] | 2.78 ± 0.054 |
| KSHSTVSSSSRHHRKTE [ISW2] | 2.14 ± 0.052 |
| KSICFENCLNNDPEILK [SWI1] | 2.83 ± 0.068 |
| KSLDKKIAKRRQVYKPV [POP3] | 2.54 ± 0.23 |
| KSLEVVNADTVGKTVKQ [NSL1] | 2.77 ± 0.051 |
| KSLGVKSLGGGAALKDI [FAS2] | 2.41 ± 0.048 |
| KSLLLNTLNIDNTARVI [BRN1] | 2.47 ± 0.066 |
| KSPEQCILRFLQLPIED [SWI3] | 1.76 ± 0.12 |
| KSQNTALPSTHKVTQKK [SIR4] | 2.79 ± 0.071 |
| KSSGSSMATPTHSDSHE [ROX3] | 2.82 ± 0.064 |
| KSSWRQEWLANLKLISV [SIR4] | 1.64 ± 0.16 |
| KSTDLTPKGNESEQELS [MTR3] | 2.46 ± 0.089 |
| KSTDNSAIRQVFERFKT [IRR1] | 2.19 ± 0.062 |
| KSWLNRLNNWLFGWNDL [YMR153W/NUP53] | 2.03 ± 0.065 |
| KSYYLNTVMLQGIFKNS [AAR2] | 2.14 ± 0.14 |
| KTGITKKDEDEEADEDM [PRE9] | 3.5 ± 0.11 |
| KTKEAVAALKAVGAHSD [RPL4A] | 3.08 ± 0.096 |
| KTNEESAKMILLSDPTI [PRP8] | 2.94 ± 0.1 |
| KTPEEVEVYAKIFWERL [ISW2] | 3.03 ± 0.17 |
| KTQQNEKSENGENDDDT [RPN3] | 2.92 ± 0.13 |

| Sequence | protein stability index |
| --- | --- |
| KTSNIESVPIYSIDEFF [BRR2] | 2.34 ± 0.045 |
| KTTRLLLIIRSLKNTDA [YJL039C/NUP192] | 1.19 ± 0.12 |
| KTYEPVLNEDDLAFGGE [RPN5] | 3.29 ± 0.058 |
| KVAEVKKLEGTIEYQKL [RPT4] | 3.17 ± 0.074 |
| KVAPAPFGAKSTKSNKA [RPL8B] | 2.74 ± 0.061 |
| KVDNDLRIELQSVYNDE [SRB8] | 3.26 ± 0.12 |
| KVEIKKVNSRDDSFFNE [PRP28] | 2.71 ± 0.092 |
| KVESQETLNDTIERSLI [YCS4] | 2.96 ± 0.072 |
| KVFSLDPQYLVDDLRPE [ASC1] | 3.04 ± 0.09 |
| KVISNPLLARKQFVVDV [RPS24A] | 2.14 ± 0.076 |
| KVKILEQIDENWSKEDL [SWI3] | 2.88 ± 0.097 |
| KVKNQGADVTNTTQDNG [YCS4] | 3.11 ± 0.049 |
| KVLCLAVAVGNVEMEED [RPL1A] | 1.33 ± 0.09 |
| KVLNEISKTTLTLDPRY [RPN3] | 2.89 ± 0.05 |
| KVSSASAAASESDVAKQ [RPL16B] | 2.04 ± 0.09 |
| KVTQMTPAPKISYKKGA [RPL36B] | 3.31 ± 0.061 |
| KVVIPNLLCYYNLRSLN [RPN3] | 2.74 ± 0.13 |
| KVYYFQGGNNELGTAVG [RPL30] | 2.54 ± 0.054 |
| KWDITTRNSNNLAIVEL [BRR2] | 3.21 ± 0.051 |
| KYCEIMGDNSQLDFTEF [SNF2] | 2.87 ± 0.1 |
| KYHYKEEWLNTKDPDEQ [CSN9] | 3.05 ± 0.057 |
| KYLEQVLDHQRAIPFRR [RPL17A] | 1.61 ± 0.083 |
| KYLPHAILKLLENMPHP [PRP8] | 1.67 ± 0.1 |
| LAAIVSTVIEEFTLFMD [YGL172W/NUP49] | 2.1 ± 0.074 |
| LAALNVWYGLSDGEDGH [SSN2] | 3.04 ± 0.067 |

| Sequence | protein stability index |
| --- | --- |
| LAEEKIRAAGGVVELIA [RPL28] | 2.935 ± 0.023 |
| LAEEVVDNIVNKYQYSL [SRP68] | 2.82 ± 0.056 |
| LAIADVETKLETKVDEL [DSN1] | 3.19 ± 0.05 |
| LAKSGSTEETTANTGTI [TAF14] | 2.19 ± 0.14 |
| LALETVLIKMVKMLRDN [SIR3] | 2.08 ± 0.079 |
| LAMNDDDFLSKKRKAGR [SNF2] | 3.16 ± 0.1 |
| LANNVESKLRDDLERLK [RPS18A] | 2.97 ± 0.24 |
| LAPARVRRRFARGMTSK [RPS15] | 3.11 ± 0.096 |
| LAPNMQLNGNETFSTSA [SNF2] | 3.29 ± 0.068 |
| LASPEVKVHMDSETSDP [DIS3] | 3.03 ± 0.071 |
| LATDVTTLNEMFRYKTN [PUP3] | 1.91 ± 0.077 |
| LATYGLTIDDLGVASFH [FAS2] | 2.92 ± 0.044 |
| LAVCDELGNMTMLITGQ [SIN4] | 2.23 ± 0.061 |
| LAVTNLLIISCIIFITF [YML031W/NDC1] | 1.42 ± 0.061 |
| LAYENKITDKEDLLHYI [POP4] | 3.2 ± 0.068 |
| LCEEYLVNNGQSDLEHD [RPN7] | 2.66 ± 0.081 |
| LCTLNDSKGSLYSVKFA [YGL100W/SEH1] | 2.62 ± 0.058 |
| LDFQTNKRLCDEIATIQ [RPS17A] | 2.96 ± 0.057 |
| LDIPNVSLVVNFQISKK [PRP28] | 2.35 ± 0.087 |
| LDKIYTRPISSQVLDLA [SMC2] | 1.25 ± 0.15 |
| LDKQIEELVEAIVLPMK [RPT5] | 3.45 ± 0.12 |
| LDNFQKSVEKTMIKKTT [SMC3] | 2.89 ± 0.069 |
| LDSNFNLQREIDQAHVS [RPN14] | 2.56 ± 0.059 |
| LDSQETPSTEESRAQNV [SWI3] | 3.16 ± 0.089 |
| LDVSSDRRKARKAYFTA [RPL26A] | 2.42 ± 0.1 |

| Sequence | protein stability index |
| --- | --- |
| LEALMDILLCYQKLFSQ [SRB8] | 3.18 ± 0.048 |
| LEAVNSMIEKGGDWERR [RPN7] | 2.8 ± 0.08 |
| LEEFEFKHGPMSLINDA [SMD2] | 3.14 ± 0.059 |
| LEGTRVSLEERTKNLVS [SMC4] | 3.34 ± 0.048 |
| LEKISSSNKDLEDEKMK [SMC4] | 3.23 ± 0.038 |
| LEKLIFDMTNHYNDSQQ [SRB8] | 2.47 ± 0.065 |
| LEMSTEDFVKLAPARVR [RPS15] | 3.07 ± 0.065 |
| LENFKSYAGKQVVGPFH [SMC4] | 2.98 ± 0.11 |
| LENMPHPWEQAKEVKVL [PRP8] | 3.09 ± 0.1 |
| LEQEYRLILLLNHRNKN [RMP1] | 1.19 ± 0.084 |
| LEQIQVQLKDANSQIQA [YIL149C/MLP2] | 2.45 ± 0.21 |
| LEQQKQPTGLLKGLNGF [YMR153W/NUP53] | 3.18 ± 0.11 |
| LERARDVNIVNRRLVYS [YCG1] | 1.72 ± 0.29 |
| LERTAIELKTDWVRFLA [RPN1] | 1.55 ± 0.11 |
| LERYVKRCMDDLNPLKT [RPO31] | 3.27 ± 0.043 |
| LESGKETALEFLEKEKQ [SMC4] | 3.17 ± 0.071 |
| LESLKPIDDTMTLLTDS [MTW1] | 3.04 ± 0.058 |
| LEVANDLQLLYVESDED [IRR1] | 1.42 ± 0.2 |
| LEWNMANLLFKKEKLKQ [RPC82] | 1.38 ± 0.13 |
| LFAFNGVARNFHFAIEQ [SIN4] | 2.55 ± 0.069 |
| LFAREIAKSQDKKSCSV [DPB4] | 3.14 ± 0.067 |
| LFGEKSILGKFCPIVEE [YCS4] | 1.57 ± 0.11 |
| LFGENDTSTQAYEEEEE [NUT1] | 3.5 ± 0.057 |
| LFGSKPQGSTTNGGLFG [YGR119C/NUP57] | 3.43 ± 0.045 |
| LFKGTGFNSWEGLFWEK [PRP8] | 3.36 ± 0.13 |

Same assay, conditions: ubr1∆

| Sequence | protein stability index |
| --- | --- |
| KRSGHRTAPKSDNVYLK [RPL18A] | 2.61 ± 0.077 |
